Consider two molecules from publication PMC4623810.

What all share (assay): SPR; Biacore X100; CagA immobilised on CM5 chip by amine coupling, SHP2 or SHP2/SH2 as analyte; KD from Scatchard plots; three independent measurements
(In general: In SPR one partner is held on a chip, and binding of the other changes the refractive index at the surface.)

Assay [1] concerns the target pY-CagA(C2)-His (tyrosine-phosphorylated Western CagA with two EPIYA-C segments) (Helicobacter pylori).
For assay [2], the target named is pY-CagA(C1)-His (tyrosine-phosphorylated Western CagA with one EPIYA-C segment) (Helicobacter pylori).
The target of assay [3] is pY-CagA(C3)-His (tyrosine-phosphorylated Western CagA with three EPIYA-C segments) (Helicobacter pylori).
In assay [4] the target is pY-CagA(C5)-His (tyrosine-phosphorylated Western CagA with five EPIYA-C segments) (Helicobacter pylori).
For assay [5], the target named is pY-CagA(C8)-His (tyrosine-phosphorylated Western CagA with eight EPIYA-C segments) (Helicobacter pylori).

B1: full-length SHP2 (recombinant) (enzyme)
chain: MTSRRWFHPNITGVEAENLLLTRGVDGSFLARPSKSNPGDFTLSVRRNGAVTHIKIQNTGDYYDLYGGEKFATLAELVQYYMEHHGQLKEKNGDVIELKYPLNCADPTSERWFHGHLSGKEAEKLLTEKGKHGSFLVRESQSHPGDFVLSVRTGDDKGESNDGKSKVTHVMIRCQELKYDVGGGERFDSLTDLVEHYKKNPMVETLGTVLQLKQPLNTTRINAAEIESRVRELSKLAETTDKVKQGFWEEFETLQQQECKLLYSRKEGQRQENKNKNRYKNILPFDHTRVVLHDGDPNEPVSDYINANIIMPEFETKCNNSKPKKSYIATQGCLQNTVNDFWRMVFQENSRVIVMTTKEVERGKSKCVKYWPDEYALKEYGVMRVRNVKESAAHDYTLRELKLSKVGQGNTERTVWQYHFRTWPDHGVPSDPGGVLDFLEEVHHKQESIMDAGPVVVHCSAGIGRTGTFIVIDILIDIIREKGVDCDIDVPKTIQMVRSQRSGMVQTEAQYRFIYMAVQHYIETLQRRIEEEQKSKRKGHEYTNIKYSLADQTSGDQSPLPPCTPTPPCAEMREDSARVYENVGLMQQQKSFR
Take B1: the Kd in assay [1] was determined as 369 nM.

B2: SHP2/SH2 (recombinant N-terminal SHP2 fragment containing two SH2 domains, analyte of the SPR) (domain or fragment)
chain: MTSRRWFHPNITGVEAENLLLTRGVDGSFLARPSKSNPGDFTLSVRRNGAVTHIKIQNTGDYYDLYGGEKFATLAELVQYYMEHHGQLKEKNGDVIELKYPLNCADPTSERWFHGHLSGKEAEKLLTEKGKHGSFLVRESQSHPGDFVLSVRTGDDKGESNDGKSKVTHVMIRCQELKYDVGGGERFDSLTDLVEHYKKNPMVETLGTVLQLKQPLNTTR
On to B2, for which the Kd amounted to 24100 nM in assay [2]; 208 nM in assay [1]; 123 nM in assay [3]; 77.8 nM in assay [4]; 40.1 nM in assay [5].

Broadly, the Kd is the constant that tells how readily two partners part at equilibrium.
